Reference: paper PMC8301015, “Atypical Bacilliredoxin AbxC Plays a Role in Responding to Oxidative Stress in Radiation-Resistant Bacterium Deinococcus radiodurans” (Antioxidants, 2021)

Molecular target: the molecule itself
Experiment: non-reducing SDS-PAGE; purified AbxC 0.5 mg/mL in PBS, 15 min, without or with increasing concentrations of H2O2 (or oxidised with diamide); 12% gel, non-reducing; disulfide-linked dimer against monomer

B1: AbxC (atypical BrxC; DR_1832), C-terminal His x 6 tag (enzyme, Deinococcus radiodurans, UniProt Q9RTD3 1-211, looked up)
chain: MTQGQDQVLSPLTTPDEVDQFLKDYPLAAVFKAGTCHKTMQGFGVLETFLQRYELPVGFIRVVDWRPASNHVAELTGLTHHSPQFILFKDGQAQYEVNNWDITPEALGPVFEQQVPQRSGAAQVDAGDSVEPYRQLMQAYLAGQLSDWAFQDQYVTMFRDDASLRSQREFELLSRLFGDPDAYHGGLHQLGAPQDRGDLKARVQSVLDQLG
notes: AbxC (DR_1832), Deinococcus radiodurans R1; monomer 23.7 kDa; single cysteine Cys36; also called putative homolog of BrxC (YtxJ); source: E. coli BL21-CodonPlus (DE3)-RP, purified (Ni-NTA, Superdex 75HR)
  stoichiometry N: 2
